Where two headings read alike, the source gives them in different places.
Key:
Assay in all cases: cell-based or functional assay
[1] = molecular target: LASV 237 (lineage III) glycoprotein (Lassa virus, strain 237)
[2] = molecular target: LASV Pinneo (lineage I) glycoprotein (Lassa virus, strain Pinneo)
[3] = molecular target: T1, LASV Josiah (lineage IV) glycoprotein, full-length GP (Lassa virus, Josiah strain, UniProt P08669 2-491)
T1 sequence: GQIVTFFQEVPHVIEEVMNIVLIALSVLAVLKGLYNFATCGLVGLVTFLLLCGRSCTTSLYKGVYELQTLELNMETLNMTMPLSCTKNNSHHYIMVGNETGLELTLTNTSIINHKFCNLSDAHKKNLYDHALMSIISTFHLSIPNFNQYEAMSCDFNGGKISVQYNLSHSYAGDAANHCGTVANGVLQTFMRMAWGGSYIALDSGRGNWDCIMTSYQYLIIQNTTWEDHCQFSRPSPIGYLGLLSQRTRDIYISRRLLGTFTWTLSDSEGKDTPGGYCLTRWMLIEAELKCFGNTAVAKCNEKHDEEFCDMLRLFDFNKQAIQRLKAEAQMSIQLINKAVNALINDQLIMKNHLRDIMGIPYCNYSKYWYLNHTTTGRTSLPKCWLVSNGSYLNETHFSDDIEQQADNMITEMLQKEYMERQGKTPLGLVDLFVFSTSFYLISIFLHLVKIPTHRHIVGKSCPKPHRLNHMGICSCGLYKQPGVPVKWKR

[4] = molecular target: LASV A19 (lineage II) glycoprotein (Lassa virus, strain A19)
[5] = molecular target: T1, LASV Josiah (lineage IV) glycoprotein, …; remark: listed apart in the source

B1: 36.9F (antibody, V domains shown)
VH: EVQLVQSGGGLVKAGGSLKLSCGASGFTFSSYSMSWVRQAPGKGLEWVSYISSGGSSIHYADSVKGRFTISRDNAKNSLYLQMKNLRVDDTGRYYCVRDPRSGISGRYGMDVWGQGTTVTVSS
VL: DIVMTQSPDSLAVSLGERATINCKSSQTVLFTSYYVAWYQQKPGQPPKLLFSGASSRESGVPDRFSAGGSGTDFYLTINSLQAEDVADYYCQQYHTPPFTFGGGTKLEIRR
- IC50 (neutralization) [1]: 4.69 µg/mL
- IC80 (neutralization) [1]: 19.4 µg/mL
- IC50 (neutralization) [2]: 6.98 µg/mL
- IC80 (neutralization) [2]: > 20 µg/mL
- IC50 (neutralization) [3]: 18 µg/mL
- IC80 (neutralization) [3]: > 20 µg/mL
- IC50 (neutralization) [4]: 13 µg/mL
- IC80 (neutralization) [4]: > 20 µg/mL
- IC50 (neutralization) [5]: 0.57 µg/mL
- IC80 (neutralization) [5]: 2.23 µg/mL

B2: 25.6A (antibody, V domains shown)
VH: QVQLQESGGGLVKAGGSLRLSCAASGFMFERYSLHWVRQTPGKGLEWVSSISSLSGSHINYADSVKGRFTISRDNAKNSLSLQMNSLRVEDTAIYYCARDRRSGSSPVPLDVWGQGTTVTVSS
VL: DLPVLTQPASVSGSPGQSITISCTGTSSDVGAYNYVSWYQQHPGKAPKLIIYEVKIRPSGVSNRFSGSKSGNTASLTISGLQAEDEADYFCSSYSTNSPWVFGGGTKVTVLR
- IC50 (neutralization) [1]: 0.169 µg/mL
- IC80 (neutralization) [1]: 0.603 µg/mL
- IC50 (neutralization) [2]: 1.83 µg/mL
- IC80 (neutralization) [2]: 3.11 µg/mL
- IC50 (neutralization) [3]: 0.743 µg/mL
- IC80 (neutralization) [3]: 2 µg/mL
- IC50 (neutralization) [4]: 0.483 µg/mL
- IC80 (neutralization) [4]: 3.51 µg/mL
- IC50 (neutralization) [5]: 0.188 µg/mL
- IC80 (neutralization) [5]: 0.3 µg/mL

B3: 18.5C (antibody)
VH: DEVQLVESGGGLVRPGGSLRLSCAAAGFTFKSYSMNWVRQAPGRGLEWVSSITSGGSKTYYADVVKGRFTVSRDNAKQSLYLQMNSLRAEDTAIYFCARSLHSTSQPSYMDVWGRKITVIVSSASTKGPSVFPLAPSSKSTSGGTAALGCLVKDYFPEPVTVSWNSGALTSGVHTFPAVLQSSGLYSLSSVVTVPSSSLGTQTYICNVNHKPSNTKVDKRVEPKSCDKTHTCPPCPAPELLGGPSVFLFPPKPKDTLMISRTPEVTC
VL: DDIQMTQSPGTLSLSPGERATLSCRASQSVISYYVAWYQHKGGQAPRLLIYGASSRATGVPDRFSGSGSGTDFTLTISSLEPEDFALYYCQYYGSSPLWAFGQGTKVEIKRTVAAPSVFIFPPSDEQLKSGTASVVCLLNNFYPREAKVQWKVDNALQSGNSQESVTEQDSKDSTYSLSSTLTLSKADYEKHKVYACEVTHQGLSSPVTKSFNRGEC
- IC50 (neutralization) [1]: 0.621 µg/mL
- IC80 (neutralization) [1]: 3.23 µg/mL
- IC50 (neutralization) [2]: 6.11 µg/mL
- IC80 (neutralization) [2]: 12.2 µg/mL
- IC50 (neutralization) [3]: 1.94 µg/mL
- IC80 (neutralization) [3]: 3.98 µg/mL
- IC50 (neutralization) [4]: 1.2 µg/mL
- IC80 (neutralization) [4]: 4.63 µg/mL
- IC50 (neutralization) [5]: > 10 µg/mL
- IC80 (neutralization) [5]: > 10 µg/mL

B4: 9.8A (antibody, V domains shown)
VH: EVQLVQSGGRLVQPGGSLRLSCVASGFTFSSHAMSWVRQAPGKGLEWVSGFSGSSGTTKYADSVKGRFTISRDNSKKTLYLQMNSLRAEDTAVYYCAKGFSPFRGVQFPYFDYWGQGTLVTVSS
VL: DIVMTQSPSTLSASVGDRVTITCRASQSIDRWLAWYQQKPGKAPKLLIYQASSLERGVPSRFSGSGSGTEFTLTISSLQPDDFATYYCQQYNGYPLTFGGGTKVEIKR
- IC50 (neutralization) [1]: 0.193 µg/mL
- IC80 (neutralization) [1]: 0.494 µg/mL
- IC50 (neutralization) [2]: 1 µg/mL
- IC80 (neutralization) [2]: 2.59 µg/mL
- IC50 (neutralization) [3]: 1.31 µg/mL
- IC80 (neutralization) [3]: 2.42 µg/mL
- IC50 (neutralization) [4]: 0.15 µg/mL
- IC80 (neutralization) [4]: 0.527 µg/mL
- IC50 (neutralization) [5]: 0.139 µg/mL
- IC80 (neutralization) [5]: 0.253 µg/mL

Reference: US20200002405A1 (ADMINISTRATORS OF THE TULANE EDUCATIONAL FUND, published 2020)
